Where “and” joins values, the source holds several entries; their conditions need not be identical. Equal entries are not always repeated.
B1: LDL receptor (LDLR) on human glioblastoma multiforme cells (receptor)
chain: not shown
notes: whole, on cells; also called cell surface LDLR

Legend:
[1] = molecular target: B1; assay: cell-based or functional assay
[2] = molecular target: T1, native plasma LDL (low density lipoprotein; LDLR ligand apoB100 on its surface) (human, UniProt P04114 28-4563); assay: ^125I-LDL saturation binding to A-172 cells
T1 construct: Lipoprotein particle isolated from plasma; also called native LDL
T1 sequence (P04114 28-4563 limits assumed): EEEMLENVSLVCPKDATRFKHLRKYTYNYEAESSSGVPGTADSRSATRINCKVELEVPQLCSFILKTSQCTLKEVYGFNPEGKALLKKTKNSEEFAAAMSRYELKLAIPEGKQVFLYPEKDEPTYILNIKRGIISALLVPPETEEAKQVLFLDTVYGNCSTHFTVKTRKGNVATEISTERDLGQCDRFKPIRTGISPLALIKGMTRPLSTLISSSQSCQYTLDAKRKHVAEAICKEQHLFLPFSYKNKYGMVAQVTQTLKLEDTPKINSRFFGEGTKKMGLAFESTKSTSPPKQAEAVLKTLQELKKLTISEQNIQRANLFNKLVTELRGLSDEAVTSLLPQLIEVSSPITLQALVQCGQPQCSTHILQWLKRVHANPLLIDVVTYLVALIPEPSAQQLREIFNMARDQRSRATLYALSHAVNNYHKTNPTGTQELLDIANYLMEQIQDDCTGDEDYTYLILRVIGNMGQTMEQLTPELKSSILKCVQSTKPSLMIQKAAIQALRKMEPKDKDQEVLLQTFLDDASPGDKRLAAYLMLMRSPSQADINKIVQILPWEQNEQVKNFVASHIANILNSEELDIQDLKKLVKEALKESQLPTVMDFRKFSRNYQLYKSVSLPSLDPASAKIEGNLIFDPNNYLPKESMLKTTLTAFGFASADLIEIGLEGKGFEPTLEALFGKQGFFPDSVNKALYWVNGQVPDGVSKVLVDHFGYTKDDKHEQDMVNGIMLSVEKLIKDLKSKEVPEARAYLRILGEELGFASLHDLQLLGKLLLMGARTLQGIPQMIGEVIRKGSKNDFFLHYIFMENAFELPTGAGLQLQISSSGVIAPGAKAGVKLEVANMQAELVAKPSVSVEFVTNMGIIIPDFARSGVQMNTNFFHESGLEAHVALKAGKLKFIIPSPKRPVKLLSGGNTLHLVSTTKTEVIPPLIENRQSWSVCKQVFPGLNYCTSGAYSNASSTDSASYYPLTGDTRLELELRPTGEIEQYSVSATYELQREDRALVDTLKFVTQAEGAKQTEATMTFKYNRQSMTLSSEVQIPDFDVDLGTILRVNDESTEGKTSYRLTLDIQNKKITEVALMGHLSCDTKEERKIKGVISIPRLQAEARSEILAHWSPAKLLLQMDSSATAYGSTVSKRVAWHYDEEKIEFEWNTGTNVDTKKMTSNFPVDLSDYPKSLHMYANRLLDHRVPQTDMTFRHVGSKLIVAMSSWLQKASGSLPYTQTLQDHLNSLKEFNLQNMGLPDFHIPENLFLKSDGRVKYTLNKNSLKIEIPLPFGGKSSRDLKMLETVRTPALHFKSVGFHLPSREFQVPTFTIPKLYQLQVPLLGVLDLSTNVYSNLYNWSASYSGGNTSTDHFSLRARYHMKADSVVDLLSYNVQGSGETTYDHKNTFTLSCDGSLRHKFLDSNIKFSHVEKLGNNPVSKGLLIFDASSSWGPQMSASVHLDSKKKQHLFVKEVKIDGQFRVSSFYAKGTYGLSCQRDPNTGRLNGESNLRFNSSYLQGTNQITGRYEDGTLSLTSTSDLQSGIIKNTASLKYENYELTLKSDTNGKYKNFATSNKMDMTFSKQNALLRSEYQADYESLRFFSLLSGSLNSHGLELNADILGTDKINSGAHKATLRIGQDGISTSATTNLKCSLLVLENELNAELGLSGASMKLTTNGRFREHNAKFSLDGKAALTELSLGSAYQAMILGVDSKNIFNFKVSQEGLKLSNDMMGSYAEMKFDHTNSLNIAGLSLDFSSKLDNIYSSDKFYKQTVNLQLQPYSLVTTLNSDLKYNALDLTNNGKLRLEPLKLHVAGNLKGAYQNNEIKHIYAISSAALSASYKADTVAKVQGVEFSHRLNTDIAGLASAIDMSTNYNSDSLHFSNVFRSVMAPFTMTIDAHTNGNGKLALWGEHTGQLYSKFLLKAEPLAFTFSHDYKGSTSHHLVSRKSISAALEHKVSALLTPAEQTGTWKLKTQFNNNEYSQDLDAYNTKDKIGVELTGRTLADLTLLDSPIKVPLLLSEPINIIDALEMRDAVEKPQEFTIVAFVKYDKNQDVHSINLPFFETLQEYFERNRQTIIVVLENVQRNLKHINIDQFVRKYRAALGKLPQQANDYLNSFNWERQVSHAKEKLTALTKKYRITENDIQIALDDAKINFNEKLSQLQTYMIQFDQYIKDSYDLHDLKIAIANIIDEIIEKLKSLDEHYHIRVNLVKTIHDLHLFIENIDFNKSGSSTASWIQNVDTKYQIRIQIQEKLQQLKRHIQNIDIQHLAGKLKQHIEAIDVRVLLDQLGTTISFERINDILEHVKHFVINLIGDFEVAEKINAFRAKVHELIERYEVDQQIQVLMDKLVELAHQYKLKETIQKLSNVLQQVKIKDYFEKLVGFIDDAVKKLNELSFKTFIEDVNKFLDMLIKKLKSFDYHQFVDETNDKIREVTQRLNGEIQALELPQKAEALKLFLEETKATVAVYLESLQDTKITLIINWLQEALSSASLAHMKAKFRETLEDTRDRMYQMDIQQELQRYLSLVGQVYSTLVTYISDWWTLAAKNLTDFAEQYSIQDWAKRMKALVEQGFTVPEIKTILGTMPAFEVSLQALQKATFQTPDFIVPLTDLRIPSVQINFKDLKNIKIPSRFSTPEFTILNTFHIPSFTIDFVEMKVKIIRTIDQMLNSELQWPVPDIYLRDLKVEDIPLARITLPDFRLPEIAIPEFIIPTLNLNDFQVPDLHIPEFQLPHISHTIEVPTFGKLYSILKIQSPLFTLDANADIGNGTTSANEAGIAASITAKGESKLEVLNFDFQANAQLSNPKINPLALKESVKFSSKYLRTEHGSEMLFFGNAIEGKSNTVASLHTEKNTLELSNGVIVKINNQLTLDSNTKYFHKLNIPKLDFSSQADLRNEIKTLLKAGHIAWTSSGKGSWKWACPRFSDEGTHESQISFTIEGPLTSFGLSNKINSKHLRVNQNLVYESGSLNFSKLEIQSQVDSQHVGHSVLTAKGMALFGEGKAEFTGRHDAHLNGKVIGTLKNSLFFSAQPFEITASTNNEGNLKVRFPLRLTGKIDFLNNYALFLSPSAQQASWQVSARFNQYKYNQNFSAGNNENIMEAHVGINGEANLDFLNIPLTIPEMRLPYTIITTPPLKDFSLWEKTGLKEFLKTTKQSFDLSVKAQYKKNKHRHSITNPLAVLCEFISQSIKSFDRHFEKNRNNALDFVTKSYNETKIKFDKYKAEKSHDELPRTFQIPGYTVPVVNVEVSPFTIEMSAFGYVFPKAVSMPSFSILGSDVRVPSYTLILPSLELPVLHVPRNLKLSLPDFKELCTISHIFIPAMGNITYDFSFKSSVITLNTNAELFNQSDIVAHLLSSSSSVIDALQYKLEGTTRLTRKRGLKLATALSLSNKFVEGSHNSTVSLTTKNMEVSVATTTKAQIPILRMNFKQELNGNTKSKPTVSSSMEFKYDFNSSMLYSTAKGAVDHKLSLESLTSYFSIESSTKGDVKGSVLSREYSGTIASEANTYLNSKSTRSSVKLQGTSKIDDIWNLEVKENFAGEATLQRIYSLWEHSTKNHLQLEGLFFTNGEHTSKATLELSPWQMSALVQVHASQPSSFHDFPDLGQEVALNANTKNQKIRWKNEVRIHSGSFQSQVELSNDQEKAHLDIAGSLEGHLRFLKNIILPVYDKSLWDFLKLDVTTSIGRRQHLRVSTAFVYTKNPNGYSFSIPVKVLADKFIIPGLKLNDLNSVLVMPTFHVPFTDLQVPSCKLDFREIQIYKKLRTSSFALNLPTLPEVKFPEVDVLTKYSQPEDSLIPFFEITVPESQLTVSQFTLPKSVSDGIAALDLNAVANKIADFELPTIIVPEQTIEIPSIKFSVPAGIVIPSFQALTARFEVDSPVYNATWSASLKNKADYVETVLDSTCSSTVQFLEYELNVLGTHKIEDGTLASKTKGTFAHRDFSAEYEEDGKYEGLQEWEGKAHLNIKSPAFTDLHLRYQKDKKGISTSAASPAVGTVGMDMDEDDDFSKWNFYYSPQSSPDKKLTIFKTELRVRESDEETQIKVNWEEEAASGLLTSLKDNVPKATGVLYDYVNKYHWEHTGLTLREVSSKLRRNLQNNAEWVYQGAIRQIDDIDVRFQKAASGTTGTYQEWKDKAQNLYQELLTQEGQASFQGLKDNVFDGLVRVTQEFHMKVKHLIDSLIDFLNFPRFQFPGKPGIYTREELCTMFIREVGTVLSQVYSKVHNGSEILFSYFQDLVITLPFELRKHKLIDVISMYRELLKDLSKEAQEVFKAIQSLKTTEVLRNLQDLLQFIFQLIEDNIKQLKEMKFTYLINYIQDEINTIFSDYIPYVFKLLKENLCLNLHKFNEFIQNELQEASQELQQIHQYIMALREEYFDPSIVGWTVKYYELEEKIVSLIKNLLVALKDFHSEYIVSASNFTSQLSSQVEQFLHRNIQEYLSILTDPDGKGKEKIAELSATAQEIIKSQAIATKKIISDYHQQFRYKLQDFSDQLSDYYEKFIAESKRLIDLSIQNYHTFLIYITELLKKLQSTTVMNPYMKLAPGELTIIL

[3] = molecular target: T1, native plasma LDL (low density …); assay: ^125I-LDL saturation binding to SF-539 cells
[4] = molecular target: T1, native plasma LDL (low density …); assay: ^125I-LDL saturation binding to SF-763 cells
[5] = molecular target: T1, native plasma LDL (low density …); assay: ^125I-LDL saturation binding to SF-767 cells
[6] = molecular target: T1, native plasma LDL (low density …); assay: ^125I-LDL saturation binding to U-343 MG cells
[7] = molecular target: T1, native plasma LDL (low density …); assay: ^125I-LDL saturation binding to U-251 MG cells (average of 2 experiments)

Kd [2]	Kd [3]	Kd [4]	Kd [5]	Kd [6]	Kd [7]	Binder	IC50 of SF-763 cell killing, 6 hrs incubation with sLDL-PO, 72 hr total [1]	IC50 of SF-767 cell killing, 1 hr incubation with sLDL-PO, 72 hr total [1]	IC50 of SF-767 cell killing, 3 hr incubation with sLDL-PO, 72 hr total [1]	IC50 of SF-767 cell killing, 6 hr incubation with sLDL-PO, 72 hr total [1]	IC50 of SF-767 cell killing, 6 hrs incubation with sLDL-PO, 72 hr total [1]	IC50 of SF-767 cell killing, 12 hr incubation with sLDL-PO, 72 hr total [1]	IC50 of U-251 cell killing, 6 hrs incubation with sLDL-PO, 72 hr total [1]
–	–	–	–	–	–	Ac-DWLKAFYDKVAEKLKEAFRLTRKRGLKLA-NH2 (also: sLDL particle with paclitaxel oleate in lipid core, not covalently bound) [synthetic LDL containing paclitaxel oleate (sLDL-PO)]	2 µM	20 µM	15 µM	10 µM	7 µM	10 µM	7 µM
62 µg/mL and 124 nM	50 µg/mL and 100 nM	60 µg/mL and 120 nM	3.5 µg/mL and 6.98 nM	40 µg/mL and 80 nM	38 µg/mL and 76 nM	B1	–	–	–	–	–	–	–

From US20100047163A1 (LAWRENCE BERKELEY NATIONAL LABORATORY, published 2010)
